# Reference: article PMC3191170, “Epigenetic Control of Viral Life-Cycle by a DNA-Methylation Dependent Transcription Factor”
# B1: Rp (-114) / CpG5 O, unmethylated (dsDNA)
# DNA 1: CACTCATACTTAAGCGATGCTGATGCA
# DNA 2: TGCATCAGCATCGCTTAAGTATGAGTG
# B2: Zp (-96) (dsDNA)
# DNA 1: TAAATTTAGGTGTGTCTATGAGGTACA
# DNA 2: TGTACCTCATAGACACACCTAAATTTA
# B3: Rp (-114) / CpG5 O, methylated (dsDNA)
# DNA 1: CACTCATACTTAAGCGATGCTGATGCA
# DNA 2: TGCATCAGCATCGCTTAAGTATGAGTG
# modifications: 5mC at CpG, both strands (M.SssI or synthesis)
# What was measured:
# Details in all cases: protein: ivt; chain copies: 2; label: 32P
# Zta (BZLF1, ZEBRA, EB1) [1] = molecular target: T1, Zta (BZLF1, ZEBRA, EB1) (Epstein-Barr virus (B95-8 strain), UniProt P03206 1-245); test: EMSA; unmethylated; class III; EMSA with wheat germ in vitro translated Zta and 32P-labelled ds oligonucleotides; buffer, salt, pH and temperature not given (as in ref 39)
# Zta (BZLF1, ZEBRA, EB1) [2] = molecular target: T1, Zta (BZLF1, ZEBRA, EB1); test: EMSA; EMSA with wheat germ in vitro translated Zta and 32P-labelled ds oligonucleotides; buffer, salt, pH and temperature not given (as in ref 39)
# Zta (BZLF1, ZEBRA, EB1) [3] = molecular target: T1, Zta (BZLF1, ZEBRA, EB1); test: EMSA; CpG methylated; EMSA with wheat germ in vitro translated Zta and 32P-labelled ds oligonucleotides; buffer, salt, pH and temperature not given (as in ref 39)
# T1 sequence (P03206 whole entry): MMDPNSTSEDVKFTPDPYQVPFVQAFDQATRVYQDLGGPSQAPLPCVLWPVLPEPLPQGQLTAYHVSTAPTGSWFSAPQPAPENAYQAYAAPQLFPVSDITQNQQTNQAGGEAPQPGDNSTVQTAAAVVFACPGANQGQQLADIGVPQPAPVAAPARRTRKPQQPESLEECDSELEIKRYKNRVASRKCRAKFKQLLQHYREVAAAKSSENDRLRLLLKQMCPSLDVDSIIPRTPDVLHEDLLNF
binder,measurement,setting,value
B1,binding result,"Zta (BZLF1, ZEBRA, EB1) [1]",no binding
B2,binding result,"Zta (BZLF1, ZEBRA, EB1) [2]",binds
B3,binding result,"Zta (BZLF1, ZEBRA, EB1) [3]",binds
